Data reported in US20260022160A1 (AFFYXELL THERAPEUTICS, published 2026).

T1: human CD40L (human, UniProt P29965 113-261, limits assumed)
T1 construct: also called hCD40L; huCD40L
T1 sequence (looked up): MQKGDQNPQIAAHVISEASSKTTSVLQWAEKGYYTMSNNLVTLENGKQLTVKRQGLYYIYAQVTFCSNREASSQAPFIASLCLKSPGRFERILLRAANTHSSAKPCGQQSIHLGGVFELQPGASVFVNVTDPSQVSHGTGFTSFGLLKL

T2: human CD40L expressed on HEK293 cells (human, UniProt P29965 1-261)
T2 construct: whole, on cells; also called hCD40L-HEK293 cells; hCD40L-HEK-293 cells (Crown Biosciences, C2041)
T2 sequence (looked up): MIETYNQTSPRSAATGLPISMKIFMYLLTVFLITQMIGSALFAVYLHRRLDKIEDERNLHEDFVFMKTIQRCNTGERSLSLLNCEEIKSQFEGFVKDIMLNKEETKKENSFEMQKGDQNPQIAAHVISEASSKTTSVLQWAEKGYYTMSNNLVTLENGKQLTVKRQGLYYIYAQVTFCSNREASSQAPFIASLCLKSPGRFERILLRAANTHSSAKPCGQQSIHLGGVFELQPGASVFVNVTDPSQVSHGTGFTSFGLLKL


What was measured:
[1] = target: T1, human CD40L; assay: direct binding ELISA on plate-coated hCD40L (5 ug/ml), detection biotinylated anti-cystatin A antibody + polyHRP-streptavidin, OD 450-630 nm
Description: Plates were washed 2 times with 150 μl of washing buffer (PBS, Tween 20 0.1%) with a plate washer and saturated with Casein 5% (Sigma) in PBS for 90 minutes at room temperature (25±1° C.). For binding, each DAW01 clone and rhCD40 Fc were added to the plate, starting from 1 μM, 1 in 3 and 300 nM, 1 in 3 respectively. Plates were washed 3 times as described previously. […] Then, cystatin A biotinylated polyclonal antibody (BAF1407) was diluted to a concentration of 0.05 μg/ml in dilution buffer (PBS, 1% casein, 0.01% Tween 20) and the plate was incubated for 90 minutes at room temperature (25±1° C.). PolyHRP-streptavidin was then diluted in dilution buffer and the plates were incubated for 90 minutes at room temperature (25±1° C.). The plates were then washed 3 times as described previously, and the substrate (TMB, Pierce Thermo-Scientific) was added to the plates for 10 minutes. The reaction was stopped using an acidic solution, and plates were read at 450-630 nm.

[2] = target: T2, human CD40L expressed on HEK293 cells; assay: flow cytometry, clone at 1 uM on hCD40L-HEK293 cells (hatched), HEK-293 negative cells as control (open), detection anti-Cystatin A + A488 anti-goat
Description: The cells were resuspended in PBS and 200,000 cells per well were dispatched in a round bottom 96 well plate. Cells were washed with PBS. The stefin A protein variant and controls were diluted in staining buffer containing 1% BSA, 0.01% Sodium Azide (NaN3), 2 mM EDTA in DPBS in duplicate and added on cells for staining for approximately 60 min at 4±1° c. Cells were washed and the secondary anti-Cystatin A (R&D, AF1407) was diluted 0.2 mg/ml in staining buffer and added on cells for staining for approximately 45 min at 4±1° c. Cells were washed again and the detection antibody A488 anti-goat (ThermoFisher, A21467) was diluted 1:500 in staining buffer and added to the cells for staining (approximately 30 min at 4±1° C.). Finally, the cells were washed and live and dead cells were stained using L/D stain Zombie Yellow (Biolegend, 423103) diluted in staining buffer for 10 min at 4±1° C. Cells were washed again and fixation buffer (R&D) was added to each well for 10 min at 4±1° C. then PBS with EDTA (Lonza) was added prior reading the plate on the flow cytometer (Guava 12 HT, Millipore). Dead cells were excluded, and the fluorescent green channel (488 nm/525/30) was acquired. Results were analyzed using Incyte and data were plotted using GraphPad.

[3] = target: T1, human CD40L; assay: cell-based or functional assay
[4] = target: T1, human CD40L; assay: cell-based or functional assay; remark: listed apart in the source
[5] = target: T1, human CD40L; assay: BIACORE (SPR) on hCD40L, kinetic fit; immobilised partner not stated
[6] = target: T1, human CD40L; assay: competitive ELISA: hCD40L (1 nM) premixed with the binder and added to plate-coated rhCD40 Fc; bound hCD40L detected with biotinylated anti-hCD40L polyclonal antibody
Description: To evaluate the avidity of the different formats, a CD40L competitive ELISA was performed. Briefly, the plates were coated with rhCD40 Fc at 1 μg/ml and incubated overnight at 4° C. The plates were washed twice with 150 μl of washing buffer (PBS, Tween 20 0.1%) with a plate washer and saturated with Casein 5% (Sigma) in PBS for 90 minutes at room temperature (25±1° C.). […] The resulting solution was then mixed and added to the plates. The plates were washed 3 times as described previously. […] The plates were incubated for 90 minutes at room temperature (25±1° C.). The plates were then washed. PolyHRP-Streptavidin was then diluted in dilution buffer and added to the plates. The plates were incubated an additional 90 minutes at room temperature (25±1° C.). Plates were washed 3 times as described previously and the substrate (TMB, Pierce Thermo-Scientific) was added in the plate for 10 minutes. The reaction was stopped using an acidic solution and the plates were read at 450-630 nm and the resulting percent inhibition was calculated.

[7] = target: T1, human CD40L; assay: cell-based or functional assay; remark: listed apart in the source

| Binder | EC50 [1] | % Positive [2] | MFI [2] | further results |
| --- | --- | --- | --- | --- |
| stefin A protein variant clone 229 (designed binder) MIPGGLSEAKPATPEIQEIVDKVKPQLEEKTGETYGKLEAVQYKTQVVQYKIITWWSGTNYYIKVRAGDNKYMHLKVFKSLVYKNKRGGHEDLVLTGYQVDKNKDDELTGF | 15.3 nM |  |  |  |
| stefin A protein variant clone 231 (designed binder) MIPGGLSEAKPATPEIQEIVDKVKPQLEEKTGETYGKLEAVQYKTQVVYYQIITWWQGTNYYIKVRAGDNKYMHLKVFKSLGIRKKQQQREDLVLTGYQVDKNKDDELTGF | 6.12 nM |  |  |  |
| stefin A protein variant clone 227 (designed binder) MIPGGLSEAKPATPEIQEIVDKVKPQLEEKTGETYGKLEAVQYKTQVVHDVFYDQKAGTNYYIKVRAGDNKYMHLKVFKSLKWWYRIGNPEDLVLTGYQVDKNKDDELTGF | 12.4 nM |  |  |  |
| stefin A protein variant clone 243 (designed binder) MIPGGLSEAKPATPEIQEIVDKVKPQLEEKTGETYGKLEAVQYKTQVVFTYQISYTVGTNYYIKVRAGDNKYMHLKVFKSLRWRYPARKPEDLVLTGYQVDKNKDDELTGF | 57.5 nM | 98.3% | 4400 MFI |  |
| stefin A protein variant clone 233 (designed binder) MIPGGLSEAKPATPEIQEIVDKVKPQLEEKTGETYGKLEAVQYKTQVVLQDQWPWRDGTNYYIKVRAGDNKYMHLKVFKSLTYGKKWYSWEDLVLTGYQVDKNKDDELTGF | 3.07 nM |  |  |  |
| clone-230 DT (trimer with a rigid linker) (designed binder) IPGGLSEAKPATPEIQEIVDKVKPQLEEKTGETYGKLEAVQYKTQVVHYYVHYNDQGTNYYIKVRAGDNKYMHLKVFKSLWGENLFAKWEDLVLTGYQVDKNKDDELTGFAEAAAKEAAAKEAAAKEAAAKEAAAKEAAAKMIPGGLSEAKPATPEIQEIVDKVKPQLEEKTGETYGKLEAVQYKTQVVHYYVHYNDQGTNYYIKVRAGDNKYMHLKVFKSLWGENLFAKWEDLVLTGYQVDKNKDDELTGFAEAAAKEAAAKEAAAKEAAAKEAAAKEAAAKMIPGGLSEAKPATPEIQEIVDKVKPQLEEKTGETYGKLEAVQYKTQVVHYYVHYNDQGTNYYIKVRAGDNKYMHLKVFKSLWGENLFAKWEDLVLTGYQVDKNKDDELTGF |  |  |  | IC50 (read off the curve) [6]: ~4 nM; IC50 (read off the curve) [7]: ~2 nM |
| stefin A protein variant clone 230 (designed binder) MIPGGLSEAKPATPEIQEIVDKVKPQLEEKTGETYGKLEAVQYKTQVVHYYVHYNDQGTNYYIKVRAGDNKYMHLKVFKSLWGENLFAKWEDLVLTGYQVDKNKDDELTGF | 0.67 nM | 98.8% | 8990 MFI | EC50 (HEK-Blue CD40 reporter cells, SEAP, OD 640 nm, hCD40L 0.8 nM) [3]: 11.6 nM; EC50 (HEK-Blue cell-based assay, % inhibition) [4]: 608 nM; Kd [5]: 8.15 nM; koff [5]: 0.000975 s⁻¹; kon [5]: 120000 M⁻¹ s⁻¹ |
| clone-230 DS (tetramer with a rigid linker) (designed binder) IPGGLSEAKPATPEIQEIVDKVKPQLEEKTGETYGKLEAVQYKTQVVHYYVHYNDQGTNYYIKVRAGDNKYMHLKVFKSLWGENLFAKWEDLVLTGYQVDKNKDDELTGFAEAAAKEAAAKEAAAKEAAAKEAAAKEAAAKMIPGGLSEAKPATPEIQEIVDKVKPQLEEKTGETYGKLEAVQYKTQVVHYYVHYNDQGTNYYIKVRAGDNKYMHLKVFKSLWGENLFAKWEDLVLTGYQVDKNKDDELTGFAEAAAKEAAAKEAAAKEAAAKEAAAKEAAAKMIPGGLSEAKPATPEIQEIVDKVKPQLEEKTGETYGKLEAVQYKTQVVHYYVHYNDQGTNYYIKVRAGDNKYMHLKVFKSLWGENLFAKWEDLVLTGYQVDKNKDDELTGFAEAAAKEAAAKEAAAKEAAAKEAAAKEAAAKMIPGGLSEAKPATPEIQEIVDKVKPQLEEKTGETYGKLEAVQYKTQVVHYYVHYNDQGTNYYIKVRAGDNKYMHLKVFKSLWGENLFAKWEDLVLTGYQVDKNKDDELTGF |  |  |  | IC50 (read off the curve) [6]: ~2 nM; IC50 (read off the curve) [7]: ~0.6 nM |

Further lines, with some results ahead:

| EC50 [1] | % Positive [2] | MFI [2] | Binder | further results |
| --- | --- | --- | --- | --- |
|  | 98.4% | 8540 MFI | stefin A protein variant clone 270 (designed binder) MIPGGLSEAKPATPEIQEIVDKVKPQLEEKTGETYGKLEAVQYKTQVVLDGLYHVNSGTNYYIKVRAGDNKYMHLKVFKSLFYYYRSEPTEDLVLTGYQVDKNKDDELTGF |  |
|  | 98.8% | 9890 MFI | stefin A protein variant clone 247 (designed binder) MIPGGLSEAKPATPEIQEIVDKVKPQLEEKTGETYGKLEAVQYKTQVVHHAYAAVYVGTNYYIKVRAGDNKYMHLKVFKSLPYWYRKYPDEDLVLTGYQVDKNKDDELTGF | EC50 (HEK-Blue CD40 reporter cells, SEAP, OD 640 nm, hCD40L 0.8 nM) [3]: 101 nM; EC50 (HEK-Blue cell-based assay, % inhibition) [4]: 1190 nM; Kd [5]: 3.74 nM; koff [5]: 0.00207 s⁻¹; kon [5]: 553000 M⁻¹ s⁻¹ |
| 17.3 nM |  |  | stefin A protein variant clone 246 (designed binder) MIPGGLSEAKPATPEIQEIVDKVKPQLEEKTGETYGKLEAVQYKTQVVHIPALKVHAGTNYYIKVRAGDNKYMHLKVFKSLPYWYRHDQEEDLVLTGYQVDKNKDDELTGF |  |
| 45.6 nM |  |  | stefin A protein variant clone 244 (designed binder) MIPGGLSEAKPATPEIQEIVDKVKPQLEEKTGETYGKLEAVQYKTQVVRENWYGEFAGTNYYIKVRAGDNKYMHLKVFKSLLYIYRHPNYEDLVLTGYQVDKNKDDELTGF |  |
| 26.4 nM | 97.9% | 7050 MFI | stefin A protein variant clone 261 (designed binder) MIPGGLSEAKPATPEIQEIVDKVKPQLEEKTGETYGKLEAVQYKTQVVVDQVWSENAGTNYYIKVRAGDNKYMHLKVFKSLPYLWRKHAVEDLVLTGYQVDKNKDDELTGF |  |
|  | 98.1% | 9620 MFI | stefin A protein variant clone 248 (designed binder) MIPGGLSEAKPATPEIQEIVDKVKPQLEEKTGETYGKLEAVQYKTQVVYDELYHEKAGTNYYIKVRAGDNKYMHLKVFKSLEYKFRNLEEDLVLTGYQVDKNKDDELTGF |  |
